Measured values taken from US20210170043A1, “DC-SIGN ANTIBODY CONJUGATES COMPRISING STING AGONISTS” (NOVARTIS AG, priority 2018, published 2021).

What was measured:
Assay type in all cases: in vivo, mouse
MC38 tumor cells = experiment: Flow cytometry of tumors and spleens of MC38 tumor-bearing mice (PDL1, T cell infiltration); conditions: Tg+ mice
Experimental: Spleens and tumors were analyzed 24 hours post dose by flow cytometry for PDL1 expression.
The effect of DC-SIGN immunoconjugate on tumor T cell infiltration was also evaluated. […] Mice After the mice were sacrificed 7 days after dosing, tumors were analyzed for T cell infiltration and activation by flow cytometry.
Tumors and/or spleens were extracted at the timepoints indicated from animals. Spleens were processed into a single cell suspension using glass slides and passed through a 100 micron mesh filter. Spleens were lysed in 1 mL of ACK lysis buffer (Life Technologies) for 5 minutes at room temperature. After lysis, cells were pelleted and resuspended in complete RMPI medium (RPMI Media 1640 with 10 percent fetal bovine serum (FBS), 0.05 mM 2-mercaptoethanol, 1 percent Penicillin-Streptomycin-Glutamine, 1 percent non-essential amino acids, 1 percent HEPES, 1 percent sodium pyruvate (all media reagents from Thermo Fisher). Tumors were extracted and put into digestion media in gentleMACS C tubes. Digestion media consists of Dulbecco's Modified Eagle Medium with 0.04 U/mL Dispase (StemCell Technologies), 0.1 mg/mL Collagenase P (Sigma) and 0.1 mg/mL DNase (Sigma). Tumors were incubated with in digestion media and then processed using the gentleMACS Dissociator (Miltenyi Biotec Inc, San Diego, Calif.) to obtain a single cell suspension. After processing, cells were filtered in […] filters (Miltenyi Biotec Inc).
1-2 million cells for each sample were then stained with a cocktail of antibodies to determine impact of the treatments on dendritic cells, myeloid cells and T cells. For FACS analysis, cells were stained with a fixable, amine reactive dye to label dead cells (Zombie UV™ fixable viability kit, Biolegend) in PBS. For antibody staining, indicated antibodies (see table below) were diluted in PBS with 0.5% Bovine serum albumin (BSA, from Sigma). Samples were incubated at 4° C. for 30 minutes and then washed 2 times with PBS with 0.5% BSA. Cells were fixed with stabilizing fixative (BD). For intracellular analysis of FoxP3 to evaluate T regulatory cells, cells were fixed and permeabilized with the FoxP3 transcription factor kit according to manufacturer's recommendations (Thermo Fisher). Cells were then stained with FoxP3 clone FJK-16s (Thermo Fisher). After staining, cells were evaluated on the BD LSRFortessa™ cell analyzer (BD Biosciences, San Jose, Calif.).
T cells were identified as CD3+ MHCII− cells. CD8+ T cells and CD4+ T cells were further defined as CD8 and CD4 positive, respectively. Tregs were identified from CD4+ T cells as being FoxP3+.
Dendritic cells were identified as MHCII high CD11c high cells and further gated on expression of CD8 and CD11 b to identify CD8+DC subsets and CD11b+ DCs where noted. Monocytic myeloid derived suppressor cells were identified as CD45+ cells in tumors that express CD11b, MHCII, F4/80, Ly6C and are intermediate for Ly6G.

[1] = tested on: transgenic mice expressing human DC-SIGN gene (Tg+); experiment: Plasma cytokine and chemokine levels in human DC-SIGN transgenic mice; conditions: 6 hours post dose
Experimental: Blood was collected at 6 hours post dose to analyze plasma cytokine and chemokine levels and spleens were analyzed at 24 hours post dose to look at dendritic cell activation.
Mice were bled 6 hours after dosing to collect plasma for analysis of circulating cytokine levels.
Plasma was collected at indicated timepoints and analyzed with a Mouse IP-10 Platinum ELISA kit (eBioscience Affymetrix). Plasma was diluted 1:100 and the protocol was followed according to the manufacturer's recommendations. Data was collected using an Enspire spectro-photometer using […] as the primary wavelength.
Plasma was collected at indicated timepoints and analyzed with a Mouse IFN-beta ELISA kit (R&D Systems) according to the manufacturer's recommendations. Data was collected using an Enspire spectro-photometer using […] as the primary wavelength.
Plasma was collected at indicated timepoints and analyzed with a mouse Proinflammatory Panel 1 (mouse) Kit V-PLEX™ 10 plex from MesoScale Discovery. 25 μL of plasma per sample was used and protocol was followed according to the manufacturer's recommendations. Data were collected and analyzed using a Sector Imager 6000.
Human DC-SIGN transgenic mice (Tg+) (Schaefer et al., J. Immunol. (2008) 180 (10) 6836-6845) were bred to Signr1 deficient mice (−/− or KO) (Orr et al., Glycobiology (2013) 23(3): 363-380). Human DC-SIGN expression was checked using PCR to genotype the mice. Human DC-SIGN Tg+ Signr1−/− mice or human DC-SIGN Tg− Signr1−/− mice were tested with compounds as indicated in the above examples.

[2] = tested on: tumor and splenic immune cells; experiment: Flow cytometry of spleen and tumor immune cells in tumor-bearing DC-SIGN transgenic mice (PDL1, T cell infiltration and activation); conditions: Tg+ mice
From the text: FIGS. 19A-19B show exemplary data on DC-SIGN immunoconjugates inducing upregulation of surface PDL1.
FIGS. 20A-20F show exemplary data on DC-SIGN immunoconjugates enhancing tumor T cell infiltration and T cell activation.

[3] = tested on: CD11c+ dendritic cells of Tg+ mice; experiment: Dendritic cell activation in DC-SIGN Tg+ mice (spleen, flow cytometry)
Experimental: Spleens were harvested 24 hours post dose and analyzed by flow cytometry to look at CD11c+ dendritic cells.

[4] = MC38, 1 mg/kg, 24 hours post dose

B1: 2B2 (DAPA) C1 (conjugate)
heavy: QVQLVQSGAEVKKPGASVKVSCKASGYTFTNYGINWVRQAPGQRLEWMGYIYIGNDYTEYNERFKGRVTITSDTSASTAYMELSSLRSEDTAVYYCARLYYGSSLYSYAMDYWGQGTTVTVSSASTKGPSVFPLAPSSKSTSGGTAALGCLVKDYFPCPVTVSWNSGALTSGVHTFPAVLQSSGLYSLSSVVTVPSSSLGTQTYICNVNHKPSNTKVDKRVEPKSCDKTHTCPPCPAPELLGGPSVFLFPPKPKDTLMISRTPEVTCVVVAVSHEDPEVKFNWYVDGVEVHNAKTKPREEQYNSTYRVVSVLTVLHQDWLNGKEYKCKVSNKALAAPIEKTISKAKGQPREPQVYTLPPSREEMTKNQVSLTCLVKGFYPCDIAVEWESNGQPENNYKTTPPVLDSDGSFFLYSKLTVDKSRWQQGNVFSCSVMHEALHNHYTQKSLSLSPGK
light: DIVMTQSPLSLPVTPGEPASISCRSSKSLLHSSGNTYLYWFLQKPGQSPQLLISRMSNLASGVPDRFSGSGSGTDFTLKISRVEAEDVGVYYCMQHLEYPYTFGGGTKVEIKRTVAAPSVFIFPPSDEQLKSGTASVVCLLNNFYPREAKVQWKVDNALQSGNSQESVTEQDSKDSTYSLSSTLTLSKADYEKHKVYACEVTHQGLSSPVTKSFNRGEC
surface PDL1 on splenic CD11c high dendritic cells (MC38 tumor cells; [4]): significant upregulation of surface PDL1
surface PDL1 on tumor resident dendritic cells and mMDSCs (MC38 tumor cells; [4]): significant upregulation of surface PDL1
tumor CD3+ T cells (MC38 tumor cells; MC38, 1 mpk, 24 and 48 hours post dosing): increased CD3+ T cells
T cell activation as measured by CD69 upregulation on tumor CD4 and CD8 T cells (MC38 tumor cells; MC38, 1 mpk, 24 hours post dose): Enhanced T cell activation
tumor CD8+ T cells (MC38 tumor cells; MC38, 1 mpk, day 7 post dose): significant increase in CD8+ T cells
tumor FoxP3+ T regulatory cells (MC38 tumor cells; MC38, 1 mpk, day 7 post dose): significant decrease in FoxP3+T regulatory cells
tumor infiltration of CD8 T cells, combination with anti-PDL1 (MC38 tumor cells; MC38, conjugate plus anti-PDL1 clone 10F.9G2, 7 days after dosing): enhanced infiltration of CD8 T cells
plasma IL-12p70 ([1]; 1 mg/kg i.v. (Fab2 1.33 mg/kg)): increased
plasma IP-10 ([1]; 1 mg/kg i.v. (Fab2 1.33 mg/kg, Fab 1.3 mg/kg)): increased
plasma TNFα ([1]; 1 mg/kg i.v.): increased
surface PDL1 on splenic CD11c high dendritic cells ([2]; 1 mg/kg): significant upregulation
surface PDL1 on tumor resident dendritic cells and mMDSCs ([2]; 1 mg/kg): significant upregulation
CD3+ T cells in tumor ([2]; 24 and 48 hours post dosing): Increased
T cell activation as measured by CD69 upregulation on CD4 and CD8 T cells in tumors ([2]; 24 hours post dose): Enhanced T cell activation
CD8+ T cells in tumors ([2]; day 7 post dose): significant increase
FoxP3+ T regulatory cells in tumors ([2]; day 7 post dose): significant decrease
infiltration of CD8 T cells in tumors ([2]; in combination with anti-PDL1): enhanced infiltration of CD8 T cells
CD80 upregulation on dendritic cells (DC activation) [3]: significantly upregulated
CD86 upregulation on dendritic cells (DC activation) [3]: significantly upregulated
